Data set [1] relates to turpentine injected hindlimb (sterile acute inflammation). Briefly: SPECT/CT and PET/MRI imaging of turpentine oil-induced sterile acute inflammation. The note with it: turpentine injected hindlimb / saline injected hindlimb; PET/MRI 1 h p.i., retro-orbital ≈20 MBq; n = 23. It counts as in vivo, male Wistar rats. The method, then: Two to 3-month-old adult male Wistar rats, weighing 250–300 g were used. The animals were housed in a controlled environment. The procedures and animal care complied with the principles formulated by the National Society for Medical Research. All methods were performed in accordance with the guidelines of the French Directorate of Veterinary Services (authorization: No. 75-214). All methods were approved by the animal ethics committee of the Claude Bernard Institute (APAFIS #14821, Paris, France). Aseptic inflammation was obtained according to a standardized procedure consisting of turpentine oil injection characterized by a massive local influx of activated inflammatory cells[33],[34]. […]
Imaging procedures of ^99mTc-HYNIC-P8RI (D and L) were performed using Single Photon Emission Computed Tomography coupled to X-ray computed tomography (SPECT/CT). […] Reconstructed slices were visually assessed in 3 planes (axial, coronal, and sagittal). […]
Three-dimensional Regions of Interests (3D-ROIs) were placed on the inflammatory muscles and the mean signal per volume unit (kBq/mL) was measured. Assuming a tissue density of 1 g/mL, the radioactivity contained in the ROI was divided by the dose administered to the animal and the volume of the ROI to obtain an imaging ROI-derived % ID/g. […]

A short description of a further data set: physchem. As to conditions: pH 7.2. It counts as physicochemical. As for the experimental part: 500 µL of^ 99mTc-HYNIC-D-P8RI in PBS (pH 7.2) was added to 500 µL of octanol in a 1.5 mL conical vial. After 15 min of vortexing, the vial was centrifuged at 5000xg for 3 min. A 100 µL aliquot of both phases was collected in triplicate and counted with a gamma counter then log P values were calculated.

Data set [2] is described as follows: in vitro. The data set is classed as in vitro ADME. As to conditions: human, plasma. The method, then: Protein binding of the purified radiolabeled D-P8RI peptide (final concentration 100 pmol/mL) was determined in triplicate after 0, 0.5, 1, 2, 3 and 4 h of incubation in fresh human plasma (collected in citrate tubes) at 37 °C and analyzed after size exclusion chromatography (illustra Microspin G-50 Columns, Sephadex G-50, GE Healthcare, UK). Simultaneously, radiolabeled peptide was incubated in PBS at 37 °C as a control. G-50 columns were prespun at 2000 × g for 1 min then 20 μL of mixture was added and the column was centrifuged at 2000 × g for 2 min. Columns and eluates were counted on a Wallac Wizard 3″ 1480 (Perkin Elmer, MA, USA), then protein binding was calculated using the following activity (A) ratio: A eluate/(A column + A eluate).

The next data set can be described thus: in vivo. The note with it: male, Wistar, rat, iv, 30 MBq, total radioactivity, Biodistribution. Set-up: species or system male Wistar rats. The method, then: Biodistribution of ^99mTc-HYNIC-D-P8RI was performed 15, 30, 90 min and 24 h post-injection. Animals (n = 3 for each time point) were injected intravenously through penis vein with 30 ± 3 MBq of ^99mTc-HYNIC-D-P8RI. They were sacrificed by isoflurane overdose and blood, heart, liver, thyroid, spleen, kidney, brain, intestine and muscle tissues were harvested and counted using a well counter. Results were expressed as the percentage of injected dose per gram of tissue (% ID/g). To characterize radiotracer elimination and potential degradation, rat urine was collected 90 min p.i, passed through a 0.22 µm PVDF filter (Durapore^TM 13 mm, Merck), and analyzed using RP-HPLC as described in Supplementary Data.

The nature of data set [3]: in vitro. It counts as in vitro ADME. The note with it: human, plasma. The method, then:
Plasma stability was assessed in triplicate at 1, 2 and 4 h after incubation of the radiolabeled D-P8RI peptide (final concentration 100 pmol/mL) in human plasma at 37 °C with RCP ≥94%. After precipitation of plasma proteins with acetonitrile and centrifugation (15000 × g, 10 min), the supernatant was analyzed by RP-HPLC as described in Supplementary Data. Plasma stability was expressed in RCP (%).
This is another data set of the same source.

Structures are written as SMILES. Non-standard residues stand in square brackets, D forms with d. Residues, ends and D or L forms follow the SMILES beside them. *: point of attachment. HYNIC = NNc1ccc(C(=O)*)cn1; PEG3 = NCCOCCOCCOCCC(=O)O

Turning to `O=C[C@H]([18F])[C@@H](O)[C@H](O)[C@H](O)CO` [[^18F]FDG, 2-deoxy-2-[^18F]fluoro-D-glucose], the “Mean signal ratio (TIH/SIH), PET/MRI” value in data set [1] is 4.49 ± 0.43.
One may read the logD as the decadic logarithm of the distribution of all forms, ionised or not, between an organic phase and buffer at a given pH. Read a low logD as lower lipophilicity. One may read the fraction unbound as free concentration divided by total concentration. Lower therefore signals extensive binding. By tissue uptake is commonly meant the share of the injected amount in each gram of the tissue. A word on the amount remaining: it is what is left of the initial amount, in per cent. A high value points to less turnover. Regarding `CC(C)C[C@@H](NC(=O)[C@@H](C)NC(=O)[C@H]1CCCN1C(=O)[C@@H](Cc1c[nH]c2ccccc12)NC(=O)[C@@H](CCCCN)NC(=O)CCOCCOCCOCCNC(=O)c1ccc(NN)nc1)C(=O)N[C@H](Cc1ccccc1)C(=O)N[C@@H](C(=O)N[C@H](CCCNC(=N)N)C(=O)O)C(C)C` [^99mTc-HYNIC-D-P8RI, metal not drawn] ({HYNIC-PEG3}-[dK][dW][dP][dA][dL][dF][dV][dR]-OH), the logD in “physchem” is -2.92 ± 0.04. In the data set “in vitro [2]”, this compound showed a fraction unbound at 0 h, 100 pmol/mL of 0.928 and a fraction unbound at 0.5 h, 100 pmol/mL of 0.952. Besides, the tissue uptake at 1.5 h in the data set “in vivo” (bladder) stood at 61.4 ± 13.4 %ID/g. In the data set “in vivo” (blood), the tissue uptake at 0.25 h was 9.74 ± 1.21 %ID/g and the tissue uptake at 24 h was determined as 0.04 ± 0.02 %ID/g. In addition, in “in vivo” (kidney), the tissue uptake at 1.5 h was 14 ± 2.93 %ID/g. In “in vitro [3]”, this compound displayed a fraction remaining at 1 h, 100 pmol/mL of 93.02 ± 0.04% and a fraction remaining at 2 h, 100 pmol/mL of 91.05 ± 0.02%.
